Results reported in the DeepSol protein solubility set.

Assay: soluble on expression in E. coli; label from the status in PepcDB or PDB records

| Sequence | soluble on expression in E. coli |
| --- | --- |
| MGNALVKKEPPPPVVLVPPLFDYPPLSARTRMLESSYNLLFGKLALRCLFEDYFEEANRFTGKFLLKPTDDPHVDLVASVSGAVDGRVEGDFVGNAEFRWQSDVDDPHTFVDLSVSTSNPVLLMRSSAYYPKYGIGAFAVYPLISKITGKSSEEYRIMGLRYGSTNLSVGATVTPFSANNELPKHAWLVSKMGSLTVGVQYEPLHGSKDLAKYTDPRNWSCAAGYGVGSQSPLTPSFNIGIELARSSQFIASFYQHVVVQRRVQNPFEENQVVGITNYIDFGFELQSRVDDSKTPPNAPDSLLQVAASWQANKNFLLKGKVGAHSSTLSLAFKSWWKPSFAFNISATTNHRTGNVQCGFGLRVDNLREASYQRADPNFVMLTPNKEHLAEGIVWKMGKRPMYQADVDAENFSELPKELRPSQKIL | soluble |
| MGNGLAKCLIDGDTETFWHAKWQGGSDPLPYDIVIDMKQNIQIAQVELLPRGRGSNNPIKVVEFAASEDNVNWTPIGRFGFTNQDAALEYYVKSIKARYIRLTIPDDGGNSTVAAIRELDVKGTIINLEHHHHHH | not soluble |
| MGNPTGFINVGRALPTERKAGERLSDWLEVYEEIPLKAVEKQASRCMDCGVPFCQSAKSEFAPAVAGCPVNNVIPEWNDLIYRGRWKDAIELLHKTNNFPEFTGRVCPAPCEGACVLGINADPVAIKLHEKEIIDHAFKEGWVVAQPPSARTGKNVAVIGSGPAGLAAAAQLNKAGHMVTVYERADRIGGLLMYGIPNMKLQKELVQRRVDILAEEGIVFVTNTEVGKDVSVEKLESDFDAIVLCIGATVPRDLPVEGRELNGVHFAMDFLKANTKSLLDSEHKDGQYINAQGKNVVVIGGGDTGTDCIGTSLRHQCTNALQLEIMPRPPEKREENNNPWPQWPKRLLVDYGQKEAIEIQGQDPRQYLVMTKKIESDVQGNVKAVHTVDITWERNDKGQMFPQEVAGSEKAIPADIVLIAMGFMGPEGGLVEQFGLEQDNRSNIAAEYDKFATSKQGVFAAGDGRRGQSLIVWAIDEGRRCAREVDSYLMGKSYLPLEHHHHHH | not soluble |
| MGNQSARQLSTHRKHVVHTWNTINSHDPQLLSDAISEAWLKSAELTPTWVWALVDLPETMHATYKENAQFLNIINQVRDFLNILIKVHKCDPEMIKTLSFRLGARHRHYMNEGNDNCFWAPFAQQLPIAMSKMYMRVVTEDSKIRRILRIRSRAAEKSEEEEVCESWRQFSCMLIESMKRGYEGCASEKTPLRLSITNSIISMASMRSSRSRSASHFLEPNMSPAIAPMCALLGSTESNSTTTTTQPSSPITPYRRRSMFRAGGALQRNSQDFTALRNRRMSSPNNPSILLNNCDIQLLKLTSQLSPLEDQVKQNRVPGRAHQQRRSITLLNFDHHHRARSPTT | not soluble |
| MGNQSTSSKGSDTKKEQITVKHQLDKNGTKVPKNPKKVVVFDFGSLDTLDKLGLDDIVAGLPKQVLPKYLSKFKDDKYADVGSLKEPDFDKVAELDPDLIIISARQSESYKEFSKIAPTIYLGVDTAKYMESFKSDAETIGKIFDKEDKVKDELANIDHSIADVKKTAEKLNKNGLVIMANDGKISAFGPKSRYGLIHDVFGVAPADQNIKASTHGQSVSYEYISKTNPDYLFVIDRGTAIGETSSTKQVVENDYVKNVNAVKNGHVIYLDSATWYLSGGGLESMTQMIKEVKDGLEKLEHHHHHH | soluble |
| MGNWAEITDEISKIYQDNQYKIRQINDVDAVSDKRREALQALFEHTGRNVIVYYSAWLENGRRFSGQSTDFSVNDTDKNSFMTALHKLDQSKGLDLILHTPGGDVAATESLVDYIHALFGQDFRVIVPQLAMSAGTMIALSSKEIVMGKHSSLGPIDPQFNGLPAHGLLEEFEQAKKEVSENPQTAHIWQVILNKYNPTMLGEAKKAIQWSNSMVKQWLEKGMFLDEPDKEEKATRAIKELADHSVTLAHNRHISVSKALELGLNIKELESDPKLQDLVLTLHHLSVIAAQRGPLIKFVVNHDNRGTFLQGHEN | soluble |
| MGPVPEFSVIIPARNEAAYLPGTLRALERQTLAPAEVIVVDNASRDQTAQIARSWGAQVLSCPEGGVARARQLGLDTARSSWVATTDADSLPAPGWLAAYAQAALLAGGYPEVEAYEDVILGQNLARLGEIGYVPRALVETSARRLDRGVGPFLIQHLRNLTGHTRGLEHHHHHH | not soluble |
| MGPYNYGWHDSDEAGKKARRGLDEDVVRYISAQKNEPEWMLEQRLKALNTFEKKPMPTWGPDLSYINFDDFKYYVRSTEKQATTWDDLPEDIKNTYDKLGIPEAEKQRLVAGVAAQYESEVVYHQIREDLETQGVIFLDTDTALKEHPELFQEYFGTVVPAGDNKFSALNSAVWSGGSFVYVPKGVHVEIPLQAYFRINTENMGQFERTLIIVDEGAYVHYVEGCTAPIYQSDSLHSAVVEIIVKKNARCRYTTIQNWSNNVLNLVTQRSKVEEGGTMEWVDGNIGSKVTMKYPAVWMVGPHAKGEVLSAAFAGEGQIQDTGAKMQHMAPYTSSNIVSKSVARSGGRAAYRGLVRVAANAHHSVSNVECDALLVDNISRSDTYPYNDIRNDHVSLGHEATVSQVSEEQLFYLQSRGIAEDEAMAMIVRGFVEPIAKELPMEYALELNRLIELQMEGSVG | not soluble |
| MGQDQTKKQIEKGLQLYQSNQTEKALQVWTKVLEKSSDLMGRFRVLGCLVTAHSEMGRYKEMLKFAVVQIDTARELEDADFLLESYLNLARSNEKLCEFHKTISYCKTCLGLPGTRAGAQLGGQVSLSMGNAFLGLSVFQKALESFEKALRYAHNNDDAMLECRVCCSLGSFYAQVKDYEKALFFPCKAAELVNNYGKGWSLKYRAMSQYHMAVAYRLLGRLGSAMECCEESMKIALQHGDRPLQALCLLCFADIHRSRGDLELSQLKLHCLSESIYRSKGLQRELRAHVVRFHECVEETELYCGLCGESIGEKNSRLQALPCSHIFHLRCLQNNGTRSCPNCRRSSMKPGFV | soluble |
| MGQSTSKVPPSSPPNEPKFVQNTPISSPGFGRAQTMLDVSQLAAAAATLDAPTLQRSSSDTALNTSMTTTTVTQTACQKSYQQALEWGRNEQFLKLAHTFHTNNY | not soluble |
| MGRKKGLPEFEESAPDGFDPENPYKDPVAMVEMREHIVREKWIQIEKAKILREKVKWCYRVEGVNHYQKCRHLVQQYLDSTRGVGWGKDHRPISLHGPKPEAVEAE | not soluble |
| MGRKSQRKNATMFDSDDDTSSVSSSSTMPSERLLNPGMDEVTVLKDALLDQSLDALYEKREQALATIVDAFNSDLQYEFVEKKFATLLHQCLHCTKKGSTKETSLATHVIGLLALTVGLGDHAQEVLEESVTPLSQALKSGREILKITSILECLAVITFVGGNDPEQTEKSMQIIWQMIHPKLGSNVVATKPSPAVISAVVSSWAFLLTTVDRWTLGPKIFQETVTYLSTLLEKDDRSVRIAAGEALAVIYELGTLEKFAAEVKGSANGSVKEGGVSQEALMHMHGLKAKVTKQVRELSVEAGGKGSAKKDLNTQRNLFKDLVEFLEDGYAPETSTKVGGDYLQTSTWYQMIQLNYLKHFLGGGFIKHMQENEFLHDVFSFTPKKIGGGKLSNDEKRLFKSPNSALNKARTQFLAKQRMLAKNMNVGHYAATAMEEE | soluble |
| MGRNKEFDTALVLHRAIEVFGEYGYEGTSLQDLLSHLGIARQSLYDTYGTKRDLFLSAVKSYLEGKNAAVMERLEAPGSVKEAIRDIFQEGVNALRDPERAKACYIINSAIEQIPHDPELARYFERQSKQLEDAFYHGLLRAKDQGELNGEDTDISALARYLNQSRLSLTFIAKVTADMDRLQDHVDVSLSVLD | soluble |
| MGRSQATAESYRDSLTIFKNYLVGELGKSISTFQFSDCTKECIYNFREYLLANGSQPSTVNVRVAAIRAYLNYASDMDISVQSVALAISQISPCLEHHHHHH | not soluble |
| MGSDDQSAGDRIQKGFQINYMILRDADSGKIIWQENKDFSAPDQEHEARVPVKILDMRAVSREINFSTIESMENFRLDQKVLFKGRIMEEWFFEMGFVGANTTNTWQSTIEAAPESQMMPAKVLNGNVTIQTSFYDNETLITKSVVRLYYILEHHHHHH | not soluble |
| MGSDKIHHHHHHAACSNDDEPGIDKGGQKGELIDAISIAFTSSSAPATRADKGEIEGVGTENNVYVAYLFAKENDPQHEGAKVGDWTVKRVAGDSNTDDKDVAAAIGEGDVATPGTKKNMCTFNGVRQGDSVYVVVNDPQMTLATAQTLAHQGDKSEAAIRAYISNLSKSYLNDLTVTKDGTQGKKYIMAGVSAIPTNPNIPNGSTVKVSIPLNRELAKVFFNASVTTNPVYEAYGKMAIKDAVWENPTGTKDPDGIVVVRIPRRVSPFTAQARDWYFPQSADATAKDWDVEGWLKAFAGESQSVPGTAEVPGTTLALNKGEYNADAKEYRLTWVVGEKALADGATPAAASMVYVKSDKLYSPYFYVTPNYADNAGCATVVVTQATYIGANTLLEPTITEQMLSEALDDSDFQTATSTDGSVKYDKLAADFWNTGANVAALVAFLEKNATYKLALRGETDPSKKEAAITIKPNDKRYYRADVANYSDDETTSMKITERNTFYHITGTITTLGAKSIEDAINSDNIDMLVQVVVKPWKYVVNNINM | not soluble |
| MGSDKIHHHHHHAATLLASCNKDEEETEIQGFKVLEYRPAPGQFINEGFDCQTMEEANAYAEERFNKKLYVSLGSFGGYITVKMPKEIKNRKGYDFGIIGNPFSGSSEPGIVWVSEDANGNGKADDVWYELKGSDEPERDYSVTYHRPDAAGDIPWEDNKGESGIIKYLPQYHDQMYYPNWIKEDSYTLKGSMLEARTEQEGGIWKNKDFGKGYADNWGSDMAKDDNGNYRYNQFDLDDAVDQNGNPVTLERIHFVKVQSAILKNVESIGEVSTEVVGFKAF | not soluble |
| MGSDKIHHHHHHACGNSDGAGEDPGVPYLAKKGEPVDGVRIGWDYGTIRQLATRGGYPRSIRLQDNTVVAVYENYDTGYEMRCSTDEGSTWGDPVILFPIHSITNDKGTARINIANSEIIQLANGDLLAACNYRPQTPEITPFAIAVRRSTDNGVTWSDPQIIYEAEPRFSDGCWEPSFLQLPNEEVQVYFANEGPYTHSNEQEISMMTSVDNGKTWGGYKTVCFRAGSRDGMPVSKVVGDEIVCVIEDCGFVTFKPYTVRTKLSDNWSSPVLADSPNRAMALGEPVEDWIYMGAPYLGVLPTGETLLSYQVDDIRHDDQLGDRLPYSTMEVAIGDKNARNFVRRTRPFPVPAGKHAVWPSVAVWDANTIAALATSNYQGGTEAPFFMKGHVMRDLEVNSSDIVNYPIFIGHTGICNLRLGVGKDADNLYITCKVKDGELYSGGQGTQKGSGVFIYLDTKNECLKEPAEGVYKVWCSYKGDITVWQGNKGKWENSELEGLQITPSVVSGGYELAFTIPLNRSFNKDAMRLCATLSTKTYTETLVHSNADRSCTWMKMNLGGH | not soluble |
| MGSDKIHHHHHHACSWVDDDRSDCPTGCWLKLSYTYNMLNVDAVTTQVKDVTLFILDQEGNYIVREEVDSLTFHQNECTIQVPSLPQGDYTFLVWAGLADSLYRHTPTSLTLLRNEAGEQSEKLSSLFHGRLDNVHISGEYQVLALSLTKNTNILSCILQSQSAAPLDTDDFRLELTARNGCMDHRNTPTDSVSTCYLPFMQESANLEDIQVVHAGMNTLRLMENDDTRLRLIHQPDGKEIFDIPLTPYLLLSRNVETTYMPPQEYLDRQDRYNLIFFLSPTNDPQKPYICLQMQVNGWIIRINDAELDK | not soluble |
| MGSDKIHHHHHHACVATAFSQTIEKENKIDVQKKNSSAEVSGRQLPEAKNIEPKLPDIEAKKLATDDKSMQTYGLTPSSPASGLSPYSYDFPALLESNPTLTDFYNFRQHSMNGQLSFIGSAEQKTYLGLGQYVAVNAGIRWIPSQRFFVEAGGDLSRQFYLALPIARQDIAGIYTRMRYSLVRNVRLNVWGQYFMGGNTPPPAYNPLFPHTGVGASISVDVKKNTEVSVGAEYQYDKKSREWKMETSGRVSIGF | not soluble |
